From IntAct's records for PubMed 20923837

Columns and labels:
vps35_mouse Vps35 = vps35_mouse Vps35 (UniProt Q9EQH3)
tbcd5_human TBC1D5 = tbcd5_human TBC1D5 (UniProt Q92609)

effect of a mutation on the interaction (vps35_mouse Vps35): with no effect
effect of a mutation on the interaction (tbcd5_human TBC1D5): disrupting interaction strength
Substance: Vacuolar protein sorting-associated protein 29 (Mus musculus) (from UniProt Q9QZ88) L152E
